Experimental data published in patent US11612667B2, “Enhanced in vivo targeting of radiolabelled peptides with the means of enzyme inhibitors” (Advanced Accelerator Applications USA, Inc., priority 2011, dated 2023).
Like-named read-outs stand apart in the source and are kept apart here. Non-standard residues stand in square brackets, D forms with d. Residues, ends and D or L forms follow the SMILES beside them. *: point of attachment. DOTA = O=C(O)CN1CCN(CC(=O)O)CCN(CC(=O)*)CCN(CC(=O)O)CC1; Tle = CC(C)(C)[C@H](N)C(=O)O; X1 = NCCNCC(CNCCN)C(=O)*; Dab = NCC[C@H](N)C(=O)O; βAla = NCCC(=O)O

Columns and labels:
NEP = NEP (Homo sapiens, UniProt P08473); settings: reversible competitive inhibitor; cited from earlier work
AR4-2J tumors (rsst2+) = tested on: AR4-2J tumors (rsst2+); design: species or system SCID mice; settings: SCID, mouse, in vivo, 4 h
Experimental: FIG. 1D: Biodistribution of [(^111In-DOTA)Ala^1]Somatostatin-14 in SCID mice bearing AR4-2J tumors (rsst2^+) at 4 h pi.
FIG. 2C: Biodistribution of [(^111In-DOTA)Ala^1, DTrp^8]Somatostatin-14 in SCID mice bearing AR4-2J tumors (rsst2^+) at 4 h pi.
Of great importance is the direct translation of PA-(or race) induced radiopeptide stabilization into meaningful and dramatic increase of tumor uptake in animals. Indeed, uptake in the rsst2^+ AR4-2J tumor after injection of ^111In[(DOTA)Ala^1]SS14 reached 13.87±2.4% ID/g in the PA-treated group at 4 h pi vs. 0.67±0.1% ID/g in the non-treated controls, while in the race pre-treated mice tumor values reached 3.51±0.2% ID/g, as presented in FIG. 1B. The corresponding values for the DTrp^8-analog, shown in FIG. 2B, reach 9.06±3.57% ID/g (PA group), 4.18±2.28% ID/g (race group) and 1.82±0.36% ID/g (non-treated controls).

[1] = mouse; cited from earlier work
[2] = design: species or system Swiss albino mice; settings: mouse, in vivo, 5 min
Experimental: Whole blood was collected 5 min postinjection (pi), blood cells were removed and major proteins were precipitated and then the supernatant was analyzed by RP-HPLC coupled to a gamma detector.
Alternatively, the dual NEP and ACE inhibitor racecadotril (race; 2.5 mg) was ip injected 45-60 min prior to radioligand injection and the same procedure was followed as described above.
To test the in vivo stability, ^111In-DOTA-MG11 was injected in the tail vein of Swiss albino mice and 5 min afterwards blood was collected, blood cells were removed and major proteins were precipitated and then the supernatant was analyzed by RP-HPLC coupled to a gamma detector. As shown in the radiochromatogram of FIG. 3A, the major part of ^111In-DOTA-MG11 was consumed during this period (<5% intact peptide still detected), in agreement with previous reports. Further, ^111In-DOTA-MG11 was co-injected together with PA or injected 1 h after ip injection of race (2.5 mg) in more mice and the same protocol was followed as above. Amazingly, the percentage of ^111In-DOTA-MG11 found intact in the blood of the PA-treated mice was raised from <5% to 75% and in the race-pretreated mice to 73%.
For ex vivo blood analysis, [^99mTc]Demotensin 6 was injected in the tail vein of Swiss albino mice and blood collected 5 min thereafter was analyzed as previously described. The effect of PA on stability was studied by co-injection of PA along with [^99mTc]Demotensin 6. Furthermore, a PA dose study was performed with the PA injected dose ranging from 300 μg down to 0.03 μg and results are summarized in FIG. 4A.
Additional groups of radiopeptides with relevance for nuclear medicine applications have been studied for their in vivo stability. Radiopeptides were injected in the tail vein of healthy mice, either alone, or with a NEP inhibitor (PA—300 μg), or with a NEP (PA—300 μg) and an ACE (Lis—300 μg) inhibitor mixture; alternatively, another NEP inhibitor prodrug (race—2.5 mg) was ip injected in the animals ˜45 min prior to radioligand injection. Blood was collected 5 min afterwards, and analyzed by RP-HPLC after suitable preparation, as previously described.

[3] = tested on: human prostate adenocarcinoma PC-3 xenografts (GRPR+); design: species or system SCID mice; settings: SCID, mouse, in vivo, 4 h
Experimental: FIG. 6C: Biodistribution of [^99mTc]SAR-NC1 in SCID mice bearing human prostate adenocarcinoma PC-3 xenografts (GRPR^+) at 4 h pi.
In FIG. 6B and FIG. 7B, the biodistribution of [^99mTc]SAR-NC1 and [^99mTc]SAR-NC6 in SCID mice bearing human prostate adenocarcinoma PC-3 xenografts (GRPR^+) at 4 h respectively, after injection of the radioligand alone or with co-injection of PA (300 μg) are shown.
It is interesting to note that with co-injection of the blocker and PA tumor values were minimal (0.69±0.03% ID/g) showing that PA provoked a GRPR-mediated increase in tumor uptake.
The effect of PA-induced stabilization of [^99mTc]Demobesin 1 on tumor uptake is illustrated in FIG. 10B, showing the biodistribution at 4 h pi after injection of [^99mTc]Demobesin 1 in SCID mice bearing human PC-3 xenografts (GRPR^+) (control), or with PA (300 μg).

WiDr tumors (hNTS1+) = assay: Biodistribution / tumor uptake in SCID mice bearing WiDr tumors (hNTS1+); settings: SCID, mouse, in vivo, 4 h
Experimental: FIG. 4H: Biodistribution of [^99mTc]Demotensin 6 in SCID mice bearing WiDr tumors (hNTS1^+) at 4 h pi. Bars represent average uptake as mean % injected dose per gram (% ID/g) of at least 4 animals with standard deviation (control at 4 h 2nd bars); three additional groups of animals received either excess NT(1-13) and PA (100 μg blocker and 300 μg PA—first bars), or PA (300 μg PA—3rd bars) or PA and Lis (300 μg PA+250 μg Lis—4th bars). Bl=blood, Li=liver, He=heart, Ki=kidneys, St=stomach, In=intestines, Sp=spleen, Mu=muscle, Lu=lungs, Pa=pancreas, Fe=femur and Tu=WiDr tumor.
FIG. 5H: Biodistribution of [^99mTc]Demotensin 1 in SCID mice bearing WiDr tumors (hNTS1+) at 4 h pi. Bars represent average uptake as mean % injected dose per gram (% ID/g) of at least 4 animals with standard deviation (control at 4 h 2nd bars); three additional groups of animals received either excess NT and PA (100 μg and 300 μg PA, respectively—first bars), or PA (300 μg PA—3rd bars) or PA and Lis (300 μg PA+300 μg Lis—4th bars). Bl=blood, Li=liver, He=heart, Ki=kidneys, St=stomach, In=intestines, Sp=spleen, Mu=muscle, Lu=lungs, Pa=pancreas, Fe=femur and Tu=WiDr tumor.
In FIG. 4B the effects of such regimens on SCID mice bearing the human colon adenocarcinoma WiDr tumor (a hNTS1R^+ tumor) on enhancing in vivo tumor targeting are presented.
In FIG. 5B the effects of above regimens on SCID mice bearing WiDr tumors (hNTS1R^+) on enhancing in vivo tumor targeting are shown.

[4] = human; cited from earlier work
AR4-2J tumors (rCCK2R+) = tested on: AR4-2J tumors (rCCK2R+); design: species or system SCID mice; settings: mouse, in vivo
Experimental: FIG. 3D: Biodistribution of ^111In-DOTA-MG11 in SCID mice bearing AR4-2J tumors (rCCK2R^+) at 4 h pi.
Biodistribution results in SCID mice bearing rCCK2R^+ AR4-2J tumors 4 h after injection of ^111In-DOTA-MG11 alone or together with PA or 1 h after ip injection of race are shown in FIG. 3B.

Chain of NEP (P08473 whole entry): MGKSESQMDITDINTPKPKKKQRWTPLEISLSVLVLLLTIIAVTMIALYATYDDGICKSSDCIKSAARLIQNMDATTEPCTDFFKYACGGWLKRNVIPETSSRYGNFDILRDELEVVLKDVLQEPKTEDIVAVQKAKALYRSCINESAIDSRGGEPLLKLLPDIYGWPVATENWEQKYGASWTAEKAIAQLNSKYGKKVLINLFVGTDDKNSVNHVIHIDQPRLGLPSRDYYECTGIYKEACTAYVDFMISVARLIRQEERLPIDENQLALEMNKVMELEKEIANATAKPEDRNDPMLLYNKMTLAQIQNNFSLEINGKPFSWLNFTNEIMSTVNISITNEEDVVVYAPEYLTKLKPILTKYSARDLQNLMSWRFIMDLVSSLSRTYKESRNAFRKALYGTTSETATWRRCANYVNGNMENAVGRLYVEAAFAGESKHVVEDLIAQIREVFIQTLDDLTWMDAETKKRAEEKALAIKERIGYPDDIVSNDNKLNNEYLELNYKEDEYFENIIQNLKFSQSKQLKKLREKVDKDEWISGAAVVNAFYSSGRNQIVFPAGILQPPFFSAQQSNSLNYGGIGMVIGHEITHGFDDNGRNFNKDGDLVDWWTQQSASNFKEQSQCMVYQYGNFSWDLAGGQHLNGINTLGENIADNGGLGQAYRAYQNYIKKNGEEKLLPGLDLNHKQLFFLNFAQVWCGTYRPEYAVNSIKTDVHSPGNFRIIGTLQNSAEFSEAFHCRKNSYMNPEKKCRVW

Question: Which IC50 (NEP) does the source give for `CC(C)C[C@H](NP(=O)(O)O[C@@H]1O[C@@H](C)[C@H](O)[C@@H](O)[C@H]1O)C(=O)N[C@@H](Cc1c[nH]c2ccccc12)C(=O)O` [Phosphoramidon, phosphoramidon] here?
Answer: The IC50 was 34 nM.

Question: Which “uptake in AR4-2J tumor” value (AR4-2J tumors (rsst2+)) does the source give for `C[C@H](NC(=O)CN1CCN(CC(=O)O)CCN(CC(=O)O)CCN(CC(=O)O)CC1)C(=O)NCC(=O)N[C@H]1CSSC[C@@H](C(=O)O)NC(=O)[C@H](CO)NC(=O)[C@H]([C@@H](C)O)NC(=O)[C@H](Cc2ccccc2)NC(=O)[C@H]([C@@H](C)O)NC(=O)[C@H](CCCCN)NC(=O)[C@H](Cc2c[nH]c3ccccc23)NC(=O)[C@H](Cc2ccccc2)NC(=O)[C@H](Cc2ccccc2)NC(=O)[C@H](CC(N)=O)NC(=O)[C@H](CCCCN)NC1=O` [[(^111In-DOTA)Ala^1]Somatostatin-14, metal not drawn] here?
Answer: Its value is 0.67±0.1 % ID/g.

Question: For `CCCC[C@H](NC(=O)[C@H](CC(C)C)NC(=O)[C@H](Cc1c[nH]cn1)NC(=O)CNC(=O)[C@@H](NC(=O)[C@H](C)NC(=O)[C@H](Cc1c[nH]c2ccccc12)NC(=O)[C@H](CCC(N)=O)NC(=O)[C@H](CC(N)=O)NC(=O)CNC(=O)[C@H](Cc1ccc(O)cc1)NC(=O)[C@H](CCCN=C(N)N)NC(=O)[C@H](CCC(N)=O)NC(=O)[C@@H]1CCCN1C(=O)C(CNCCN)CNCCN)C(C)C)C(N)=O` [[^99mTc]Demobesin 4, metal not drawn], which “in vitro stability in plasma” value [1] is on record?
Answer: Its value is “very high”.

Question: And the “percentage of parent peptide remaining intact” value [2]?
Answer: Its value is 26%.

Question: What about the “uptake in PC-3 tumor” value [3] of the same compound?
Answer: The value was 11.26±1.81 % ID/g.

Question: With `CC(C)C[C@H](NC(=O)[C@@H](NC(=O)[C@H](Cc1ccc(O)cc1)NC(=O)[C@@H]1CCCN1C(=O)[C@H](CCN)NC(=O)[C@H](CCCNC(=N)N)NC(=O)CCNC(=O)C(CNCCN)CNCCN)C(C)(C)C)C(=O)O` [[^99mTc]Demotensin 6, ^99mTc-N4-βAla-Arg-Dab-Pro-Tyr-Tle-Leu-OH, metal not drawn] ({X1-βAla}-R[Dab]PY[Tle]L-OH) as the compound, how does the “in vitro stability in plasma” value [1] read?
Answer: Its value is “stable”.

Question: And the “percentage of parent peptide remaining intact” value [2]?
Answer: The value was 52%.

Question: What about the “uptake in WiDr tumor” value (WiDr tumors (hNTS1+)) of the same compound?
Answer: Its value is 1.61±0.42 % ID/g.

Question: And the “in vitro stability in plasma” value [4]?
Answer: The value was “stable”.

Question: Which results are given for `CSCC[C@H](NC(=O)[C@H](Cc1c[nH]c2ccccc12)NC(=O)CNC(=O)[C@H](Cc1ccc(O)cc1)NC(=O)[C@H](C)NC(=O)[C@@H](CCC(=O)O)NC(=O)CN1CCN(CC(=O)O)CCN(CC(=O)O)CCN(CC(=O)O)CC1)C(=O)N[C@@H](CC(=O)O)C(=O)N[C@@H](Cc1ccccc1)C(N)=O` [^111In-DOTA-MG11, [(^111In-DOTA)DGlu^10]Minigastrin(10-17), metal not drawn] ({DOTA}-[dE]AYGWMDF-NH2)?
Answer: percentage of parent peptide remaining intact [2]: < 5%; uptake in AR4-2J tumor (AR4-2J tumors (rCCK2R+); SCID, 4 h): 1.22±0.06 % ID/g; increase in the tumor by PA administration (AR4-2J tumors (rCCK2R+)): > 9 fold
